B1: MAGUK p55 subfamily member 2 (Homo sapiens), Q14168-2 (parent)
chain: MPVAATNSETAMQQVLDNLGSLPSATGAAELDLIFLRGIMESPIVRSLAKAHERLEETKLEAVRDNNLELVQEILRDLAHVAEQSSTAAELAHILQEPHFQSLLETHDSVASKTYETPPPSPGLDPTFSNQPVPPDAVRMVGIRKTAGEHLGVTFRVEGGELVIARILHGGMVAQQGLLHVGDIIKEVNGQPVGSDPRALQELLRNASGSVILKILPSYQEPHLPRQVFVKCHFDYDPARDSLIPCKEAGLRFNAGDLLQIVNQDDANWWQACHVEGGSAGLIPSQLLEEKRKAFVKRDLELTPNSGTLCGSLSGKKKKRMMYLTTKNAEFDRHELLIYEEVARMPPFRRKTLVLIGAQGVGRRSLKNKLIMWDPDRYGTTVPYTSRRPKDSEREGQGYSFVSRGEMEADVRAGRYLEHGEYEGNLYGTRIDSIRGVVAAGKVCVLDVNPQAVKVLRTAEFVPYVVFIEAPDFETLRAMNRAALESGISTKQLTEADLRRTVEESSRIQRGYGHYFDLCLVNSNLERTFRELQTAMEKLRTEPQWVPVSWVY
partner: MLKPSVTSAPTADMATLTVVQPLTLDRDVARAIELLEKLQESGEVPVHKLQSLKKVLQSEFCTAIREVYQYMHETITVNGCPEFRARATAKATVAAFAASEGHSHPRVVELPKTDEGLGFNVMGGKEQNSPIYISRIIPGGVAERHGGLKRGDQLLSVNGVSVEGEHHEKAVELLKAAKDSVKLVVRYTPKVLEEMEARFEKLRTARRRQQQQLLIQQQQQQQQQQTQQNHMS
B2: Microtubule-associated tumor suppressor candidate 2 (Homo sapiens), Q5JR59-3 (parent)
chain: MGHCCCKPYNCLQCLDKTNESALVKEKELSIELANIRDEVAFHTAKCEKLQKEKEELERRFEDEVKRLGWQQQAELQELEERLQLQFEAEMARLQEEHGDQLLSIRCQHQEQVEDLTASHDAALLEMENNHTVAITILQDDHDHKVQELMSTHELEKKELEENFEKLRLSLQDQVDTLTFQSQSLRDRARRFEEALRKNTEEQLEIALAPYQHLEEDMKSLKQVLEMKNQQIHEQEKKILELEKLAEKNIILEEKIQVLQQQNEDLKARIDQNTVVTRQLSEENANLQEYVEKETQEKKRLSRTNEELLWKLQTGDPTSPIKLSPTSPVYRGSSSGPSSPARVSTTPR
partner: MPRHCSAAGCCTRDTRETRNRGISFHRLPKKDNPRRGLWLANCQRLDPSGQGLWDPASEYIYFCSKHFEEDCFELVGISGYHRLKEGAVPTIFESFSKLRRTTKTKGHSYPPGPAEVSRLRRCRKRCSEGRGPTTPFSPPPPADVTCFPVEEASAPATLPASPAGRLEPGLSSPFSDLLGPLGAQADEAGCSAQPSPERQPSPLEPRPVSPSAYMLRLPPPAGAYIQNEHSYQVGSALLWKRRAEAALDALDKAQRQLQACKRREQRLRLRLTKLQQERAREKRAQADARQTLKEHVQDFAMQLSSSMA
B3: Keratin-associated protein 26-1 (Homo sapiens), Q6PEX3 (parent)
chain: MSCPNYCSGNSNSGSLRTSRHIPLTSIDLCPTSVSCGDVLYLPTSSQDHTWVTDNCQETCGEPTSCQPVHCETGNLETSCGSSTAYYVPRPCQGSSFLPASFFSSSCLPVSCRPQRYVSSGCRPLRPLLNSYQPIGDCVPNAYRPQFCLSKSCQPQNLLTSGCQPSSCLAYRPQSLHVVSSSLRPLGPLFSGCQPLTHVFSTCRPSCSGL
partner: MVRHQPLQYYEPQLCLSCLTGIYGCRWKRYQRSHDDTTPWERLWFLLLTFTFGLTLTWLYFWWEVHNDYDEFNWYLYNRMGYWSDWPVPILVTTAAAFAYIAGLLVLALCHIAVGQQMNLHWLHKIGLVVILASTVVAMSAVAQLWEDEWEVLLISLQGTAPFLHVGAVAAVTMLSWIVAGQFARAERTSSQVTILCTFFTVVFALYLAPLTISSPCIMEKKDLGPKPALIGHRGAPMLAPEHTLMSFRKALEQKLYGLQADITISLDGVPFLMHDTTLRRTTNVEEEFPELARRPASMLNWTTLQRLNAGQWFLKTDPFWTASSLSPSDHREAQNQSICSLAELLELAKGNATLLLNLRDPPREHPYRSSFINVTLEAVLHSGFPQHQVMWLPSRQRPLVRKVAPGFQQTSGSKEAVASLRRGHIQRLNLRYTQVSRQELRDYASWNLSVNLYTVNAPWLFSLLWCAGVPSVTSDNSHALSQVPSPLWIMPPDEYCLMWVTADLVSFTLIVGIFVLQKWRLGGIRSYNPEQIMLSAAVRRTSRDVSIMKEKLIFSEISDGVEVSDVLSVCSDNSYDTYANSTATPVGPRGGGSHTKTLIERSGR
B4: Serine/threonine-protein kinase PAK 5 (Homo sapiens), Q9P286 (parent)
chain: MFGKKKKKIEISGPSNFEHRVHTGFDPQEQKFTGLPQQWHSLLADTANRPKPMVDPSCITPIQLAPMKTIVRGNKPCKETSINGLLEDFDNISVTRSNSLRKESPPTPDQGASSHGPGHAEENGFITFSQYSSESDTTADYTTEKYREKSLYGDDLDPYYRGSHAAKQNGHVMKMKHGEAYYSEVKPLKSDFARFSADYHSHLDSLSKPSEYSDLKWEYQRASSSSPLDYSFQFTPSRTAGTSGCSKESLAYSESEWGPSLDDYDRRPKSSYLNQTSPQPTMRQRSRSGSGLQEPMMPFGASAFKTHPQGHSYNSYTYPRLSEPTMCIPKVDYDRAQMVLSPPLSGSDTYPRGPAKLPQSQSKSGYSSSSHQYPSGYHKATLYHHPSLQSSSQYISTASYLSSLSLSSSTYPPPSWGSSSDQQPSRVSHEQFRAALQLVVSPGDPREYLANFIKIGEGSTGIVCIATEKHTGKQVAVKKMDLRKQQRRELLFNEVVIMRDYHHDNVVDMYSSYLVGDELWVVMEFLEGGALTDIVTHTRMNEEQIATVCLSVLRALSYLHNQGVIHRDIKSDSILLTSDGRIKLSDFGFCAQVSKEVPKRKSLVGTPYWMAPEVISRLPYGTEVDIWSLGIMVIEMIDGEPPYFNEPPLQAMRRIRDSLPPRVKDLHKVSSVLRGFLDLMLVREPSQRATAQELLGHPFLKLAGPPSCIVPLMRQYRHH
partner: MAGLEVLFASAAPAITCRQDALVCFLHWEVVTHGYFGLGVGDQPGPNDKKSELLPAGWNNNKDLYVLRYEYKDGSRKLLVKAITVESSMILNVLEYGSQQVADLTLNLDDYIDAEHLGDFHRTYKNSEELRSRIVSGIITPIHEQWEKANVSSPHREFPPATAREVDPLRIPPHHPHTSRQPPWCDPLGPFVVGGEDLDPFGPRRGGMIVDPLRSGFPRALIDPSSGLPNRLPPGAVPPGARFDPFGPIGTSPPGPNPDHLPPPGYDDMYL
B5: Microtubule-associated tumor suppressor candidate 2 (Homo sapiens), Q5JR59-3 (parent)
chain: B2 chain
partner: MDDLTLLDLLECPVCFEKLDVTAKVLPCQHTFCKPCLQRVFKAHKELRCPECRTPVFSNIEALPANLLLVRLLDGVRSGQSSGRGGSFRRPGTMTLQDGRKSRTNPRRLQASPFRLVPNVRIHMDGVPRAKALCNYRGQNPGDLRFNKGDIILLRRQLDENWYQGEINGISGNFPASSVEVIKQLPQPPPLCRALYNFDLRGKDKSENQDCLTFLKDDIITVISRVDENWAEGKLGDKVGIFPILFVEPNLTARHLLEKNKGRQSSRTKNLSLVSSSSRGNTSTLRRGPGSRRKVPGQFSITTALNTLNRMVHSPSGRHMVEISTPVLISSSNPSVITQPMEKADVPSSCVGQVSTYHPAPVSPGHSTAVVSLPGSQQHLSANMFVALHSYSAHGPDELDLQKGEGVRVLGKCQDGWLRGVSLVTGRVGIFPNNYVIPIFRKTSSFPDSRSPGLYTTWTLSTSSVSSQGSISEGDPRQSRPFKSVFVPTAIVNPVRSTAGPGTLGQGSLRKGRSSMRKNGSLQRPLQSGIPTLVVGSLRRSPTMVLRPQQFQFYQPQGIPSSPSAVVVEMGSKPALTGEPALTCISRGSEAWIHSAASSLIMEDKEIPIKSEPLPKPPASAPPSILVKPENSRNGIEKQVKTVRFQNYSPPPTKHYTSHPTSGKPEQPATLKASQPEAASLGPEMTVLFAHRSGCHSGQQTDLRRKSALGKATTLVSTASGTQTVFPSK

Variants of: B1
Settings: with lin7a_human LIN7A

Row | effect of a mutation on the interaction | Variant
1 | with no effect | R500W

Variants of: B2
Settings: with thap7_human THAP7, Q9BT49

Row | effect of a mutation on the interaction | Variant
2 | with no effect | A89V

Variants of: B3
Settings: with gdpd5_human GDPD5, Q8WTR4

Row | effect of a mutation on the interaction | Variant
3 | with no effect | S26Y

Variants of: B4
Settings: with psmf1_human PSMF1, Q92530

Row | effect of a mutation on the interaction | Variant
4 | with no effect | R335P

Variants of: B5
Settings: with sh3r2_human SH3RF2, Q8TEC5

Row | effect of a mutation on the interaction | Variant
5 | with no effect | A89V
